Source: article PMC5733394, “A J-Protein Co-chaperone Recruits BiP to Monomerize IRE1 and Repress the Unfolded Protein Response” (Cell, 2017)
Numbering of substitutions follows the chain as printed. Names and notes keep the numbering of the source. Blank lines part the entries; values can stand above or below the binder they belong to.

Key:
[1] = molecular target: the molecule itself; experiment: cross-linking; spontaneous Q105C-Q105C disulfide of IRE1^(LD Q105C)-GST in transfected ΔERdj4 CHO cells (alone or with ERdj4 or ERdj4^QPD); glutathione Sepharose; non-reducing SDS-PAGE and immunoblot
IRE1^LD-GST = molecular target: T1, IRE1^LD-GST (human, UniProt O75460 19-486); experiment: pull-down; GST fusions recovered on glutathione Sepharose 4B from lysates of transfected ΔERdj4 CHO cells (co-transfected with ERdj4, ERdj4^QPD or ERdj6 where indicated); ATP-depleting lysis buffer; endogenous BiP by immunoblot; where indicated beads incubated 5 min with 3 mM ATP; details: partners not purified
T1 construct: IRE1α, human, entire luminal and transmembrane domains, residues 19-486; the cytosolic effector domain is replaced by GST; also called IRE1α luminal and transmembrane domain fused to cytosolic GST; source: ΔERdj4 CHO cells, transfected, in lysate; not shown: GST, C-terminal, kept
T1 sequence (looked up): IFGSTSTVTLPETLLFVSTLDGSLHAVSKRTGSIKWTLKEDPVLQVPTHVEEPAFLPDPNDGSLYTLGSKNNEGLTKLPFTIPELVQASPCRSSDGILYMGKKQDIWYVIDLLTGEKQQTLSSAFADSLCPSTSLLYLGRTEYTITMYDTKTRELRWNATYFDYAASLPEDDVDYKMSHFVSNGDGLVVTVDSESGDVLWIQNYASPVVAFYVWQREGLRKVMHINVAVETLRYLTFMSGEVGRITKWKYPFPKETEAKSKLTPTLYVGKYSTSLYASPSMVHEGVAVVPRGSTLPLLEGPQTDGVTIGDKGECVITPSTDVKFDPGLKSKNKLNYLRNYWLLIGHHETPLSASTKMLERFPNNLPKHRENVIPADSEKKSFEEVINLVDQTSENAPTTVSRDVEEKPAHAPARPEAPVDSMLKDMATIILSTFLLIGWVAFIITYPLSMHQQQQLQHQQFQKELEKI

B1: IRE1^(LD Q105C)-GST (domain or fragment, human, UniProt O75460 19-486, looked up)
chain: T1 sequence (looked up) with Q87C
modifications: Q105C-Q105C disulfide between two copies in the dimeric species
notes: IRE1α, human, luminal and transmembrane domains as in IRE1^LD-GST (residues 19-486), with Q105C; a modified version of IRE1^LD-GST; source: ΔERdj4 CHO cells, transfected, in lysate; not shown: GST, C-terminal, kept
- fold decrease of the disulfide-linked dimeric fraction with co-transfected WT ERdj4 [1]: 2.5 fold
- stoichiometry N [1]: 2

- fold recovery of BiP with co-transfected WT ERdj4 against ERdj4^QPD (IRE1^LD-GST): 2.5 fold
B2: endogenous BiP (CHO cells) (natural protein)
chain: not shown
notes: BiP, the ER luminal Hsp70, Chinese hamster, endogenous in CHO cells; detected by immunoblot with anti-hamster BiP serum; source: endogenous, CHO cell lysate
